Assays:
Test in all cases: SPR, antibody captured by anti-human Fc, cytokine injected
rat IL-12 = target: T1, rat IL-12 (rat, UniProt P43432 23-335; Q9R103 23-215, limits assumed)
T1 chain 1: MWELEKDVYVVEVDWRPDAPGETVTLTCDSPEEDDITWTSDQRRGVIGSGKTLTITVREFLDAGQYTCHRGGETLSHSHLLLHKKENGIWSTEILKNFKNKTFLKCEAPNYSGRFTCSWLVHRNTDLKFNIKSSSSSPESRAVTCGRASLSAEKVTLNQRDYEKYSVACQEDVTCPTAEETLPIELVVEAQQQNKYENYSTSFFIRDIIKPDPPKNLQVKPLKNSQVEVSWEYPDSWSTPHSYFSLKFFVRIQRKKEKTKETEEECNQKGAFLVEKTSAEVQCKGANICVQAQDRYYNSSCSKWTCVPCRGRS
T1 chain 2: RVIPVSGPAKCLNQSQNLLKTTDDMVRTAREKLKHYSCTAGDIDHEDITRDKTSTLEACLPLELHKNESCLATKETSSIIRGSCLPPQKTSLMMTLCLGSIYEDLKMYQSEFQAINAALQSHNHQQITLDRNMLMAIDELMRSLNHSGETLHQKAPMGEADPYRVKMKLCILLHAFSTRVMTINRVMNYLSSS
Experimental: (§1) In order to determine binding to TL1A, kinetic assays were conducted at 37° C. using a collection rate of 10 Hz on a Biacore™ T200 instrument (GE Healthcare). […] For the analysis of the p40 binding arm, kinetic assays were conducted at 37° C. using a collection rate of 10 Hz on a Biacore™ 8 K+ instrument (GE Healthcare).

rat IL-23 = target: T2, rat IL-23 (rat, UniProt P43432 23-335; Q91Z84 22-196, limits assumed)
T2 chain 1: T1 chain 1
T2 chain 2: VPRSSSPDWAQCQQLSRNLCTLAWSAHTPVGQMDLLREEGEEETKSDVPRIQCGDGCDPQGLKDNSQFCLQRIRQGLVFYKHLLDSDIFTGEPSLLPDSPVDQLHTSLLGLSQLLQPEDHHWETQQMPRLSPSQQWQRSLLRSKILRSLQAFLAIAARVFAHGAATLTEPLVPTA
Experimental: as §1

mouse IL-23 = target: T3, mouse IL-23 (mouse, UniProt P43432 23-335; Q9EQ14 22-196)
T3 sequence 1: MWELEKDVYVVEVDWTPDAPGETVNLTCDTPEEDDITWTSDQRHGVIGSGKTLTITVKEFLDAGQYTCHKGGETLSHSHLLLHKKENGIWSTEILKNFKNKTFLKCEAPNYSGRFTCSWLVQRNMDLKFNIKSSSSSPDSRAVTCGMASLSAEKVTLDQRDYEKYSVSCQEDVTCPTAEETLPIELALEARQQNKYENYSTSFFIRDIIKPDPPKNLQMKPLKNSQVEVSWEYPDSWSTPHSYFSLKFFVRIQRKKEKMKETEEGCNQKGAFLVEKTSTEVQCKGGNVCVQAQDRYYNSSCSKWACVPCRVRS
T3 sequence 2: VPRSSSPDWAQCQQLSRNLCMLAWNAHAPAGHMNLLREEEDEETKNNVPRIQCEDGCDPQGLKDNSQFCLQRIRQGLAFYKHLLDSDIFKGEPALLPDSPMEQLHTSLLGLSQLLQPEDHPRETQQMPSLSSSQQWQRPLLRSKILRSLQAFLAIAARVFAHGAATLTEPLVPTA
Experimental: as §1

rabbit IL-12 = target: T4, rabbit IL-12 (rabbit)
T4 chain 1: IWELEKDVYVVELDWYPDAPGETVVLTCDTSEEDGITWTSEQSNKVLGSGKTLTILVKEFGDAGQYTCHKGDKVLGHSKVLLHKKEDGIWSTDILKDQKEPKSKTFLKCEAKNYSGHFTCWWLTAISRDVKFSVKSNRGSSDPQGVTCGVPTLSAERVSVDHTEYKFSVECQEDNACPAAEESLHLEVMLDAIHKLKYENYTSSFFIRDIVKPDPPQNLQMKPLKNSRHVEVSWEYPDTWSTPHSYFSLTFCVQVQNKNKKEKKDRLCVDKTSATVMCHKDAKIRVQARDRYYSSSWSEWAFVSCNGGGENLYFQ
T4 chain 2: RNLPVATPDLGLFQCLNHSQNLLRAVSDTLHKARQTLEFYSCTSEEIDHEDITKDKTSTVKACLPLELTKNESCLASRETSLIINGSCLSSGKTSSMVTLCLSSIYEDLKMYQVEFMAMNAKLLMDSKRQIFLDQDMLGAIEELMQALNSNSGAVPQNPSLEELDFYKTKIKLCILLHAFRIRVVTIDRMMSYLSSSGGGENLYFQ
Experimental: as §1

mouse IL-12 = target: T5, mouse IL-12 (mouse, UniProt P43432 23-335; P43431 23-215)
T5 sequence 1: T3 sequence 1
T5 sequence 2: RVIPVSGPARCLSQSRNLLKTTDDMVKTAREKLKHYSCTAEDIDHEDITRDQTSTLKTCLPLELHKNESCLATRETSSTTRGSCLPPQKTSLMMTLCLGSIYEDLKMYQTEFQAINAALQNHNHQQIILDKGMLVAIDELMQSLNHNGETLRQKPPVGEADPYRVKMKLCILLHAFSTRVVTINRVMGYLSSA
Experimental: as §1

rabbit IL-23 = target: T6, rabbit IL-23 (rabbit)
T6 chain 1: T4 chain 1
T6 chain 2: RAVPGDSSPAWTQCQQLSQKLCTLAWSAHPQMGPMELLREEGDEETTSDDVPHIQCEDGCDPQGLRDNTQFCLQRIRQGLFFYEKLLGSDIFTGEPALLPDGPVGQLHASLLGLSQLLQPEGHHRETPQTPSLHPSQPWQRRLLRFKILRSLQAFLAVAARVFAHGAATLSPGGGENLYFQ
Experimental: as §1

binding result (rat IL-12): no binding (tested: 200 nM) | binding result (rat IL-23): no binding (tested: 200 nM) | binding result (mouse IL-23): no binding (tested: 200 nM) | binding result (rabbit IL-12): no binding (tested: 200 nM) | binding result (mouse IL-12): no binding (tested: 200 nM) | binding result (rabbit IL-23): no binding (tested: 200 nM)
B1: p40TL1A-0033 (bispecific antibody, human IgG1, kappa)
chain 1: not shown
chain 2: QVQLVQSGAEVKKPGASVKVSCKASGYDYTYYGISWVRQAPGQGLEWMGWISTYNTGTHYAPSLQGRVTMTTDTSTSTAYMELRSLRSDDTAVYYCARESYYGSGAFRGGMDVWGQGTTVTVSSASTKGPSVFPLAPSSKSTSGGTAALGCLVKDYFPEPVTVSWNSGALTSGVHTFPAVLQSSGLYSLSSVVTVPSSSLGTQTYICNVNHKPSNTKVDKKVEPKSC
heavy: EVQLVQSGAEVKKPGESLKISCKGSGYSFTTYWLGWVRQMPGKGLDWIGIMSPVDSDIRYSPSFQGQVTMSVDKSITTAYLQWNSLKASDTAMYYCARRRPGQGYFDFWGQGTLVTVSSASTKGPSVFPLAPSSKSTSGGTAALGCLVKDYFPEPVTVSWNSGALTSGVHTFPAVLQSSGLYSLSSVVTVPSSSLGTQTYICNVNHKPSNTKVDKKVEPKSCDKTHTCPPCPAPEAAGAPSVFLFPPKPKDTLMISRTPEVTCVVVDVSHEDPEVKFNWYVDGVEVHNAKTKPREEQYNSTYRVVSVLTVLHQDWLNGKEYKCKVSNKALPAPIEKTISKAKGQPREPQVCTLPPSREEMTKNQVSLWCLVKGFYPSDIAVEWESNGQPENNYKTTPPVLDSDGSFFLYSKLTVDKSRWQQGNVFSCSVLHEALHSHYTQKSLSLSPGK
light: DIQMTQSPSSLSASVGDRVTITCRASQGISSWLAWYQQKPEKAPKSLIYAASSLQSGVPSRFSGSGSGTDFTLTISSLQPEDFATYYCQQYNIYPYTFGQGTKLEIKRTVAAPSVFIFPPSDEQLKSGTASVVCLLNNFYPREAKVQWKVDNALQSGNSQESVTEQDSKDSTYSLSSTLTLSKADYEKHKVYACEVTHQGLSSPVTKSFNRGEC
notes: KiH modified-Fd bispecific: TL1A VL-CL-Fc (hole), TL1A mFd, p40 HC (knob), p40 LC; LS

From patent publication US20240059799A1 (Pfizer, published 2024)
